# Molecular target: Rad51 (S. cerevisiae) (UniProt P25454)
# Test: co-IP; Rad51 immunoprecipitated with anti-Rad51 antibody from yeast lysates (Rad51 overexpressed from a plasmid), IP fraction blotted for Hsp82 and Aha1; strains WT, hda1Δ, aha1Δ and hsp82 mutant strains (K27Q, K27R, K274Q, K274R, K178R); rad51Δ as negative control; blots quantified with Image J
# Sequence of UniProt P25454 (P25454 whole entry): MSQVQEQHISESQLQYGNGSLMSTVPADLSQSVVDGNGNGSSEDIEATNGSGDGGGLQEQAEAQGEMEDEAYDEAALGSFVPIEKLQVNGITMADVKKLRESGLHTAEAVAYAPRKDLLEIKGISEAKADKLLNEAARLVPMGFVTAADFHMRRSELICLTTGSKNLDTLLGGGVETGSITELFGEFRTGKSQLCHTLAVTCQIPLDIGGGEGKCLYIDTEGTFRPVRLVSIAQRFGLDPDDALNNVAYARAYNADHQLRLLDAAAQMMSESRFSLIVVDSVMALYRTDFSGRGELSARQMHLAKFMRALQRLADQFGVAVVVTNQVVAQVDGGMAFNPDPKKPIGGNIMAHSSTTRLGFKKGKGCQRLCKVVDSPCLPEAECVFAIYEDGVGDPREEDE
substance,measurement,value
Hsp82 (WT) (from UniProt P02829 1-709) (natural protein),fold reduction of association in the aha1Δ strain against the WT strain,2 fold
same,fold reduction of association in the hda1Δ strain against the WT strain,5 fold
